{"source": "patent US20100003727", "target": "T1, lipoamide-containing aminomethyl transferase (GcvH, H-protein) of C. jeikeium", "T1 chain": "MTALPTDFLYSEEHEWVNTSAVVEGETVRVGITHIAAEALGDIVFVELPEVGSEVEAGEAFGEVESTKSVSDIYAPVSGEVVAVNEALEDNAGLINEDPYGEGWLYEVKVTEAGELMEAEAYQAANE", "data": [{"protein": "lipoyl transferase (LipB protein) of C. jeikeium (protein) MGFQQGSIRKANMGTTGTNDGATTPPANTSTPAVDIDVRDLGTVDYEDTWHLQANLAAQRAEEKIPDTILLLQHPPTYTAGKRTQDSDRPTNGLPVVDVDRGGRITWHGPGQLVAYPIIKLADPVDVVDYVRRLEQALIQTCEDLGLHGTGRVEGRSGVWLPAGVINGELKPARKIAAIGIRVTRGVTMHGVALNCDNTMEYYDHIVPCGLADAGVTTLTEELGRDVSVSDAYSSLAHNLVDALNGDLPVHS", "values": [{"measurement": "growth of serine-auxotrophic C. glutamicum OM264C transformants (pOM620AF, pOM621AR) on minimal glycine plates without serine and without lipoic acid", "value": "both transformants grew, while OM264C(pCLIK) did not"}]}]}
